Tests used:
Assay in all cases: anti-FLAG co-IP LC-MS, exp 3, +IFNg +Dox
[1] = molecular target: T1, Proteasome subunit alpha type (Homo sapiens)
T1 construct: also called PSMA6

[2] = molecular target: T2, Immunoglobulin kappa variable 2-40 (Homo sapiens)
T2 construct: also called IGKV2-40

[3] = molecular target: ATP-dependent RNA helicase DDX3X (Homo sapiens, UniProt O00571 2-662)
[4] = molecular target: T3, DNA-dependent protein kinase catalytic subunit (Homo sapiens, UniProt P78527 1-4128)
T3 construct: also called PRKDC

[5] = molecular target: T4, Nuclease-sensitive element-binding protein 1 (Fragment) (Homo sapiens, UniProt P67809 2-324)
T4 construct: also called YBX1
T4 sequence (P67809 2-324 limits assumed): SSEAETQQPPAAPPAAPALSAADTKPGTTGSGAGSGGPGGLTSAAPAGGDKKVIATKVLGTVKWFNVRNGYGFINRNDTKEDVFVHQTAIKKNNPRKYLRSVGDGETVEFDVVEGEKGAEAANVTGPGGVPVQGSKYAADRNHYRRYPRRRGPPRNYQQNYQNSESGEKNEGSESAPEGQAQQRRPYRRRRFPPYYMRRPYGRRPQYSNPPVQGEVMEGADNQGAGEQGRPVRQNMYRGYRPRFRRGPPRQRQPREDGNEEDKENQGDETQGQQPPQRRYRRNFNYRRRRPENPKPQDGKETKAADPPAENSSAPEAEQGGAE

[6] = molecular target: T5, Heterogeneous nuclear ribonucleoprotein M (Homo sapiens, UniProt P52272 2-730)
T5 construct: also called HNRNPM
T5 sequence (looked up): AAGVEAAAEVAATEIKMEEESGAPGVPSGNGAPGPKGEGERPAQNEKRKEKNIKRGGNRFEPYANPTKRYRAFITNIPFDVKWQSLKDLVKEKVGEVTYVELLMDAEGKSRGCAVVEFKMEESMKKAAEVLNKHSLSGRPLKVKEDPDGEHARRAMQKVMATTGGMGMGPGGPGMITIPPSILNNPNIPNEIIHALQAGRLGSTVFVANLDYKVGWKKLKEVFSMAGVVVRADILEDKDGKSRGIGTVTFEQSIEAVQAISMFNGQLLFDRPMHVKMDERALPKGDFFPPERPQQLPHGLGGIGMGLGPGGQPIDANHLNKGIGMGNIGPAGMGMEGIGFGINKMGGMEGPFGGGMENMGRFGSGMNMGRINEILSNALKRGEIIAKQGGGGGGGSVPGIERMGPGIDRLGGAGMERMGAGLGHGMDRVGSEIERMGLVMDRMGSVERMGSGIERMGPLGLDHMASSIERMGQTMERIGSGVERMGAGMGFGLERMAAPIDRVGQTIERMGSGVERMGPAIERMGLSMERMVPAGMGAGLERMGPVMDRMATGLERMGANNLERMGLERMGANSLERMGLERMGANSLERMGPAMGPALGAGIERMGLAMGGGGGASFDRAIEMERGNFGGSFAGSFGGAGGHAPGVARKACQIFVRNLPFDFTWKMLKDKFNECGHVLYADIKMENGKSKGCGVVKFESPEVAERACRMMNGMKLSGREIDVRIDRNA

[7] = molecular target: T6, Nucleolin (Homo sapiens, UniProt P19338 2-710)
T6 construct: also called NCL
T6 sequence (P19338 2-710 limits assumed): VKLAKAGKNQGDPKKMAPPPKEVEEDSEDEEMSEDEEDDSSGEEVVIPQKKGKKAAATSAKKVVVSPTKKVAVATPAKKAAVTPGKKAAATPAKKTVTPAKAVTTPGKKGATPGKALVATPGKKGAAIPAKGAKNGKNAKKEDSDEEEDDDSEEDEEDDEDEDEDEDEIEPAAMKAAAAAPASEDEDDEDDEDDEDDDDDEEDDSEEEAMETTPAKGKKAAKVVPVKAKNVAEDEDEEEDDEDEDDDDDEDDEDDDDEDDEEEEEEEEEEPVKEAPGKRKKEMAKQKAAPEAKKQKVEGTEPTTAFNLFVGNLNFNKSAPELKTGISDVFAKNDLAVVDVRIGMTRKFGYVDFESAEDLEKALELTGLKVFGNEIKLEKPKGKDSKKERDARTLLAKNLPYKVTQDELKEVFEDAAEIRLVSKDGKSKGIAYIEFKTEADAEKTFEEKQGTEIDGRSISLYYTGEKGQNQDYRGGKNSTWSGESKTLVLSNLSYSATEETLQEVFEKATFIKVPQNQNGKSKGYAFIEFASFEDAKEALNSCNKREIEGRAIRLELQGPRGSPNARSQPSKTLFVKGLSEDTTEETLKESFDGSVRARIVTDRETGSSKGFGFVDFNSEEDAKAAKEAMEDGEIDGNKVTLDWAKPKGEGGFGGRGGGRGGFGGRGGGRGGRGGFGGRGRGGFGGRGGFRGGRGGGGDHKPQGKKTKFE

[8] = molecular target: T7, Cyclin-dependent kinase 4 (Homo sapiens, UniProt P11802 2-303)
T7 construct: also called CDK4
T7 sequence (P11802 2-303 limits assumed): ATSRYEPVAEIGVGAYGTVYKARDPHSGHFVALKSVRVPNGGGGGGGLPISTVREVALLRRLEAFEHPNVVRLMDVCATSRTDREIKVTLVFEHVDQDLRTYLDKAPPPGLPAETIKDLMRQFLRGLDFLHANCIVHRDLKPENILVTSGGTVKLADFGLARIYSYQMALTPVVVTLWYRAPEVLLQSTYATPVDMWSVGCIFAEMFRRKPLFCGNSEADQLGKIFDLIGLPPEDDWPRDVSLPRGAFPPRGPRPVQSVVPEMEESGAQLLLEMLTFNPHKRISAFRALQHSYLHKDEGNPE

[9] = molecular target: T8, Signal transducer and activator of transcription 1-alpha/beta (Homo sapiens, UniProt P42224 2-750)
T8 construct: also called STAT1
T8 sequence (looked up): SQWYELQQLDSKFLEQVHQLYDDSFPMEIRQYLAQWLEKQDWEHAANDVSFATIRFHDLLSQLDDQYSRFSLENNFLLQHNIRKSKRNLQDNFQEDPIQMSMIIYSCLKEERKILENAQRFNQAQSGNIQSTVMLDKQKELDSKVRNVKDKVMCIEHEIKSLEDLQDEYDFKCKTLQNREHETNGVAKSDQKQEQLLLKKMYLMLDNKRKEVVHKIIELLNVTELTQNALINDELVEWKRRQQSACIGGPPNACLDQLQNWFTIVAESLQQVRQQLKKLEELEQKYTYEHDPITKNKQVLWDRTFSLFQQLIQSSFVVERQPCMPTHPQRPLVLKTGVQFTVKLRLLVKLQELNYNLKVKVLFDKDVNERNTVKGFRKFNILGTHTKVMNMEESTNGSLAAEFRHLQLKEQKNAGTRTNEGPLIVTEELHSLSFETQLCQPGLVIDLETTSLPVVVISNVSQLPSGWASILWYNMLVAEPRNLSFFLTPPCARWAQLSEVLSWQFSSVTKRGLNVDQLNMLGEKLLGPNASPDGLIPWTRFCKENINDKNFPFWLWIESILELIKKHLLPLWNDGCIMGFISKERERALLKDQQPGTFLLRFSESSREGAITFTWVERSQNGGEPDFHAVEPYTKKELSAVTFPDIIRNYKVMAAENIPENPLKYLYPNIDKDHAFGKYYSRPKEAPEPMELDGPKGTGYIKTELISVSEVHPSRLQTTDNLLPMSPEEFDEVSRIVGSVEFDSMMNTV

[10] = molecular target: T9, Heterogeneous nuclear ribonucleoprotein U (Homo sapiens, UniProt Q00839 2-825)
T9 construct: also called HNRNPU; HNRPU
T9 sequence (Q00839 2-825 limits assumed): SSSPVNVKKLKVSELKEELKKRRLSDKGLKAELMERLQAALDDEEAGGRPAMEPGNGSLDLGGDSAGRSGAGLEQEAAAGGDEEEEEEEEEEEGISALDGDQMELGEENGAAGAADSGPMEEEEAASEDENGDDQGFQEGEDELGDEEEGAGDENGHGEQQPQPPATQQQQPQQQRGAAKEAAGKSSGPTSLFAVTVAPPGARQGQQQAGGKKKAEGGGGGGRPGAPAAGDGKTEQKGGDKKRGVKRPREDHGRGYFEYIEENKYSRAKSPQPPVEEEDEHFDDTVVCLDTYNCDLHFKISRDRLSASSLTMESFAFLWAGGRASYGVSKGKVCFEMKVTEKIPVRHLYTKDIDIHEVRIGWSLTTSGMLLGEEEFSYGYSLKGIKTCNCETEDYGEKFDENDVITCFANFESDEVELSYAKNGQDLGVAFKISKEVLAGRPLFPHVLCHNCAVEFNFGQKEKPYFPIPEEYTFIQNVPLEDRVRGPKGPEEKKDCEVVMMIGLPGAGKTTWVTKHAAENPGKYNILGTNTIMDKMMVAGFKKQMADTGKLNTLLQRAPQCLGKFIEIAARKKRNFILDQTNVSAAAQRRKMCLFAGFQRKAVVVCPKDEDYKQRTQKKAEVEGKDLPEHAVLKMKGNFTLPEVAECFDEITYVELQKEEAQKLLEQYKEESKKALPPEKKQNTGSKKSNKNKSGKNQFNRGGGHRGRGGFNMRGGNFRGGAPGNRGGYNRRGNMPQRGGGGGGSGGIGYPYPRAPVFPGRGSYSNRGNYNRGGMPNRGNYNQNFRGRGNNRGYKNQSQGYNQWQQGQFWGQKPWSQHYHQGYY

[11] = molecular target: T10, Uncharacterized protein (Fragment) (Homo sapiens)
T10 construct: also called NA (Homology to TAP2)

[12] = molecular target: T11, cDNA FLJ56329, highly similar to Myosin light polypeptide 6 (Homo sapiens)
T11 construct: also called MYL6

T2 sequence (A0A087WW87 20-121): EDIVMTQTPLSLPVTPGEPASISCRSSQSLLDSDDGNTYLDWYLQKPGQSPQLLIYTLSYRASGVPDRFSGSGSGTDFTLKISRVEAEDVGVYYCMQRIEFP
ATP-dependent RNA helicase DDX3X, sequence (O00571 2-662 limits assumed): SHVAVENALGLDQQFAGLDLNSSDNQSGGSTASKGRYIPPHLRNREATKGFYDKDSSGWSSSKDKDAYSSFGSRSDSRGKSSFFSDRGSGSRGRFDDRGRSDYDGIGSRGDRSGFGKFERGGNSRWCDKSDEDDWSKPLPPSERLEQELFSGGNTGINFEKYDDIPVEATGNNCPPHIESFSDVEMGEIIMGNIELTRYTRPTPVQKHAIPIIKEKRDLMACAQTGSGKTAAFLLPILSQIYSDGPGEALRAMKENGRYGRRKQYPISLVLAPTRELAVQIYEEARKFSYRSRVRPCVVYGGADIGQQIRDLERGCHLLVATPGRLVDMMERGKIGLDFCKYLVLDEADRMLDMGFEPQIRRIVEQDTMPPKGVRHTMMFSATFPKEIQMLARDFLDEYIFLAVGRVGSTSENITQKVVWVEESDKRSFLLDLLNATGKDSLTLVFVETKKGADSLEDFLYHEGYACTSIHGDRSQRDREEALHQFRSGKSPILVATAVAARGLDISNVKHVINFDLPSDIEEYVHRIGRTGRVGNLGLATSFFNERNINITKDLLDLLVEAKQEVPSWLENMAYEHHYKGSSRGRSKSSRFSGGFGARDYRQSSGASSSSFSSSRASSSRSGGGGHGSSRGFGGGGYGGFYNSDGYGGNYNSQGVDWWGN

B1: i3XFLAG-NLS-CTDaa154-424 (other)
chain: MDYKDHDGDYKDHDIDYKDDDDKPPKRMRREPKKKRKVGRAPAQAGGLCSAAPGGGHPAPSWVAFAHTGAWGTGLPAPHVPCAPGALPQGAFVSQAARAAPALQPSQAAPAEGISQPAPARGDFAYAAPAPPDGALSHPQAPRWPPHPGKSREDRDPQRDGLPGPCAVAQPGPAQAGPQGQGVLAPPTSQGSPWWGWGRGPQVAGAAWEPQAGAAPPPQPAPPDASASARQGQMQGIPAPSQALQEPAPWSALPCGLLLDELLASPEFLQQAQPLLETEAPGELEASEEAASLEAPLSEEEYRALLEEL
notes: Doxycycline-induced in MB135 cells for co-IP; also called longCTD; iDUX4-CTD
With B1 the PSMs [1] was 1 PSMs, the PSMs [2] was 2 PSMs and the PSMs [3] was 37 PSMs. For the same binder, the PSMs [4] was 18 PSMs, the PSMs [5] was 7 PSMs and the PSMs [6] was 21 PSMs. For the same binder, the PSMs [7] was 4 PSMs, the PSMs [8] was 1 PSMs and the PSMs [9] was 3 PSMs. For the same binder, the PSMs [10] was 9 PSMs, the PSMs [11] was 1 PSMs and the PSMs [12] was 4 PSMs.

Reference: patent US20250339531A1 (FRED HUTCHINSON CANCER CENTER, published 2025)
